In US20180371086A1 (Gilead, published 2018):

What was measured:
Assay in all cases: cell-based or functional assay
[1] = target: HIV-1 Env of subtype B isolate MGRM-B-110 (HIV-1)
[2] = target: HIV-1 Env of subtype B isolate MGRM-B-132 (HIV-1)
[3] = target: HIV-1 Env of subtype B isolate MGRM-B-106 (HIV-1)
[4] = target: HIV-1 Env of subtype B isolate MGRM-B-111 (HIV-1)
[5] = target: HIV-1 Env of subtype B isolate MGRM-B-118 (HIV-1)
[6] = target: HIV-1 Env of subtype B isolate MGRM-B-136 (HIV-1)
[7] = target: HIV-1 Env of subtype B isolate MGRM-B-112 (HIV-1)
[8] = target: HIV-1 Env of subtype B isolate MGRM-B-105 (HIV-1)
[9] = target: HIV-1 Env of subtype B isolate MGRM-B-115 (HIV-1)
[10] = target: HIV-1 Env of subtype B virus 15-124964 (HIV-1)
[11] = target: HIV-1 Env of subtype B virus 15-101608 (HIV-1)
[12] = target: HIV-1 Env of subtype B virus 15-124914 (HIV-1)
[13] = target: HIV-1 Env of subtype B virus 15-124970 (HIV-1)
[14] = target: HIV-1 Env of subtype B virus 15-124906 (HIV-1)
[15] = target: HIV-1 Env of subtype B virus 15-124963 (HIV-1)
[16] = target: HIV-1 Env of subtype B virus 15-102514 (HIV-1)
[17] = target: HIV-1 Env of subtype B virus 15-124904 (HIV-1)
[18] = target: HIV-1 Env of subtype B virus 15-101757 (HIV-1)
[19] = target: HIV-1 Env of subtype B virus 15-124987 (HIV-1)
[20] = target: HIV-1 Env of subtype B virus 15-124918 (HIV-1)
[21] = target: HIV-1 Env of subtype B virus 15-124934 (HIV-1)
[22] = target: HIV-1 Env of subtype B virus 15-124975 (HIV-1)
[23] = target: HIV-1 Env of subtype B virus 15-124986 (HIV-1)
[24] = target: HIV-1 Env of subtype B virus 15-124962 (HIV-1)
[25] = target: HIV-1 Env of subtype B virus 15-124950 (HIV-1)
[26] = target: HIV-1 Env of subtype B isolate 92US727 (HIV-1)
[27] = target: HIV-1 Env of the lab adapted HIV-1 BaL strain (HIV-1)
[28] = target: HIV-1 Env of subtype B isolate 93HT593 (HIV-1)
[29] = target: HIV-1 Env of subtype B isolate 92US712 (HIV-1)
[30] = target: HIV-1 Env of subtype B isolate 92US657 (HIV-1)

B1: PGT121.60 hIgG1/hLambda (antibody, V domains shown)
VH: QMQLQESGPGLVKPSETLSLTCSVSGASISDSYWSWIRRSPGKGLEWIGYVHKSGDTNYNPSLKSRVHLSLDTSKNQVSLSLTGVTAADSGKYYCARTLHGRRIYGIVAFNEWFTYFYMDVWGTGTQVTVSS
VL: SDISVAPGETARISCGEKSLGSRAVQWYQHRAGQAPSLIIYNNQDRPSGIPERFSGSPDSRPGTTATLTITSVEAGDEADYYCHIWDSRVPTKWVFGGGTTLTVLG
Q: Which results are given for B1?
A: Neutralization activity, IC50 [1]: 0.0113 µg/mL; Neutralization activity, IC50 [2]: 0.0077 µg/mL; Neutralization activity, IC50 [3]: 0.001 µg/mL; Neutralization activity, IC50 [4]: 0.955 µg/mL; Neutralization activity, IC50 [5]: 3.31 µg/mL; Neutralization activity, IC50 [6]: 0.0071 µg/mL; Neutralization activity, IC50 [7]: 0.0058 µg/mL; Neutralization activity, IC50 [8]: 0.0076 µg/mL; Neutralization activity, IC50 [9]: 0.141 µg/mL; Neutralization potency, IC50 [10]: 0.0026 µg/mL; Neutralization potency, IC50 [11]: 1.84 µg/mL; Neutralization potency, IC50 [12]: 0.002 µg/mL; Neutralization potency, IC50 [13]: 0.0285 µg/mL; Neutralization potency, IC50 [14]: 0.0103 µg/mL; Neutralization potency, IC50 [15]: 2.05 µg/mL; Neutralization potency, IC50 [16]: 0.0128 µg/mL; Neutralization potency, IC50 [17]: 0.0121 µg/mL; Neutralization potency, IC50 [18]: 0.0132 µg/mL; Neutralization potency, IC50 [19]: 0.0163 µg/mL; Neutralization potency, IC50 [20]: 0.0018 µg/mL; Neutralization potency, IC50 [21]: 0.797 µg/mL; Neutralization potency, IC50 [22]: 0.105 µg/mL; Neutralization potency, IC50 [23]: 0.0015 µg/mL; Neutralization potency, IC50 [24]: 0.0277 µg/mL; Neutralization potency, IC50 [25]: 0.0995 µg/mL; Neutralization potency, IC50 [26]: 0.007 µg/mL; Neutralization potency, IC50 [27]: 0.007 µg/mL; Neutralization potency, IC50 [28]: 0.141 µg/mL; Neutralization potency, IC50 [29]: 0.008 µg/mL; Neutralization potency, IC50 [30]: 0.062 µg/mL
